The text below walks through data of article PMC11053944, “FRET Assays for the Identification of C. albicans HSP90-Sba1 and Human HSP90α-p23 Binding Inhibitors” (Pharmaceuticals, 2024).

The IC50 is the concentration that inhibits the measured activity by half. A word on the Kd: it is the equilibrium constant for the complex coming apart.

Data set [1] concerns the target T1, human HSP90α-mNeonGreen–p23-mScarlet-I binding (Homo sapiens, UniProt P07900, E47A).
T1 construct: made in house; host or cells: E. coli Rosetta2(DE3) pLysS
As to the kind of experiment: FRET characterization of model inhibitors and ATP on human HSP90α-p23 binding. Conditions: 5 mM ATP. On the procedure: In this investigation, 1 µM HSP90-mNeonGreen was incubated with 2 µM Sba1-mScarlet-I in reaction buffer containing 5 mM ATP either alone (UC) or with the addition of 20 µM Sba1. As a negative control, samples containing 20 µM bovine serum albumin (BSA) were used.
FRET experiments were carried out in 384-well microtiter plates (Art. No. 3766 Corning, NY, USA, or Art. No. 781906, Greiner Bio-One GmbH, Frickenhausen, Germany) containing a final volume of 20 µL and measured with a microplate reader Infinite M200Pro (Tecan, Männedorf, Switzerland). The fluorescence was measured in three channels: excitation (ex.): 488 nm/emission (em.): 525 nm (mNeonGreen fluorescence), ex.: 561 nm/em.: 610 nm (mScarlet-I fluorescence) and the FRET channel ex.: 488 nm/em.: 610 nm. The excitation and emission bandwidths were set to 9 and 20 nm, respectively. Experiments for the determination of the equilibrium dissociation constants were performed with a filter-based microplate reader Infinite F200Pro (Tecan, Männedorf, Switzerland). The fluorescence was measured in three channels using the following filters: ex.: 485 ± 20 nm/em.: 535 ± 20 nm (mNeonGreen channel), ex.: 535 ± 20 nm/em.: 612 ± 10 nm (mScarlet-I channel) and the FRET channel ex.: 485 ± 20 nm/em.: 612 ± 10 nm. FRET emission (EmFRET) was calculated according to Song et al. 2011 [81]:(1) EmFRET=FLDA−x×FLDD−(y×FLAA) where FLDA is the fluorescence signal of the FRET channel and FLDD and FLAA are fluorescence signals from the mNeonGreen and mScarlet-I channels, respectively. The correction factors x and y were calculated as follows:(2) x=FLDA/FLDD for samples containing only the donor fluorophore or fluorescent fusion proteins with mNeonGreen and (3) y=FLDA/FLAA for samples containing only the acceptor fluorophore or fluorescent fusion proteins with mScarlet-I in the same concentration as samples containing both the donor and acceptor.
All experiments were carried out in reaction buffer (40 mM HEPES/KOH pH 7.5, 20 mM KCl, 5 mM MgCl2, 20 mM Na2MoO4, Triton-X 100 0.1%). HEPES and KCl were purchased from AppliChem, Darmstadt, Germany. KOH and MgCl2 were obtained from VWR Chemicals, Darmstadt, Germany. Na2MoO4 was from Merck, Darmstadt, Germany. Triton-X 100 was purchased from Serva, Heidelberg, Germany.
For C. albicans Sba1 competition experiments for HSP90-mNeonGreen–Sba1-mScarlet-I binding, 1 µM HSP90-mNeonGreen and 1 µM Sba1-mScarlet-I were incubated with varying concentrations of Sba1 in a range of 0–25,000 nM (lowest non-zero concentration 12 nM) in reaction buffer containing 5 mM ATP. The experiment was performed twice in nonaplicates. For human p23 competition experiments for HSP90α-mNeonGreen–p23-mScarlet-I binding, 1 µM HSP90α-mNeonGreen and 1 µM p23-mScarlet-I were incubated with varying concentrations of p23 in a range of 0–50 000 nM (lowest non-zero concentration 23 nM) in reaction buffer containing 5 mM ATP. The experiment was performed twice in hexaplicates. […] The experiment was performed thrice in triplicates. […] The IC50,rel values were calculated using the equation log (inhibitor) vs. response-variable slope (four parameters) in GraphPad Prism 5. Ki values for inhibition of HSP90-mNeonGreen–Sba1-mScarlet-I/p23-mScarlet-I binding by non-labeled Sba1/p23 were calculated with One Site—Fit Ki in GraphPad Prism 5. […] The EC50,rel values were calculated using the log (agonist) vs. response-variable slope (four parameters) equation in GraphPad Prism 5.

For another data set, the system named is human HSP90α. The arrangement: method as in PMID 16403413. The conditions noted are these: cited from earlier work.
For another data set, the target named is T2, human HSP90α–p23 binding (Homo sapiens, UniProt P07900).
T2 construct: made in house; host or cells: E. coli Rosetta2(DE3) pLysS
The data set is described as follows: FRET inhibitor screening assay, human HSP90α-p23 binding. The conditions noted are these: 10 or 100 µM, triplicates, 3 mM ATP, 1% DMSO, 15 min 37 °C. The text has this: We used the Z′ factor (Z′) to optimize the FRET assays for screening purposes. Z′ represents a simple statistical parameter for the quality assessment and optimization of HTS assays and screening assays in general. It is a measure that determines the degree of signal separation between binding and non-binding data sets. Calculation of the Z′ factor is based on the standard deviation of the individual data sets as well as their general signal separation. Values ≥ 0.5 can be classified as excellent for screening purposes. […] When the fluorescent fusion proteins of HSP90 and co-chaperones bind to each other, FRET occurs between donor and acceptor fluorophores, and the sensitized emission (EmFRET) signal increases. Consequently, the fluorescence intensity of the donor decreases (FLDD). […] We defined the ‘hit threshold’ as a decrease in readout signal of more than 3 standard deviations (SDs) from the mean signal of the binding control. This constitutes a common threshold for hit identification in HTS campaigns.
The excitation and emission bandwidths were set to 9 and 20 nm, respectively. Experiments for the determination of the equilibrium dissociation constants were performed with a filter-based microplate reader Infinite F200Pro (Tecan, Männedorf, Switzerland). […] The correction factors x and y were calculated as follows:(2) x=FLDA/FLDD for samples containing only the donor fluorophore or fluorescent fusion proteins with mNeonGreen and (3) y=FLDA/FLAA for samples containing only the acceptor fluorophore or fluorescent fusion proteins with mScarlet-I in the same concentration as samples containing both the donor and acceptor.
For screening for the identification of ATP-competitive C. albicans HSP90 and HSP90-Sba1 binding inhibitors, 10 µL of HSP90-mNeonGreen (2 µM) and Sba1-mScarlet-I (4 µM) in HEPES buffer (40 mM HEPES/KOH pH 7.5, 20 mM KCl) was mixed with 10 µL of 200 µM compound solution in 2x reaction buffer (40 mM HEPES/KOH pH 7.5, 20 mM KCl, 10 mM MgCl2, 40 mM Na2MoO4, Triton-X 100 0.2%), 6 mM ATP, 2% DMSO, resulting ultimately in constant HSP90-mNeonGreen concentrations of 1 µM and Sba1-mScarlet-I 2 µM in reaction buffer. Samples for binding control (3 mM ATP, final concentration) and non-binding control (no ATP) were prepared in the same manner without compounds. The samples were incubated for 15 min at 30 °C prior to measurement. The assay for the human HSP90α–p23 binding inhibitor identification was performed analogously, with the exception that samples were incubated for 15 min at 37 °C prior to measurement. Since binding samples show both a high EmFRET as well as a reduction in donor emission (FLDD), we calculated the quotient (EmFRET/FLDD) to derive an improved signal separation and robustness. The nucleoside-mimetics library was obtained from Enamine (catalog No. NML-320-X-20, Enamine Ltd., Kyiv, Ukraine). Z′ and Z factors were calculated based on Zhang et al..

The next data set deals with human HSP90β. The arrangement: method as in PMID 16403413. The conditions noted are these: read-out: Kd of human HSP90β–p23 complex; cited from earlier work.

Take “p23: unlabeled human HSP90 co-chaperone p23 (Q15185), His6-tagged”: the “effect on FRET emission (EmFRET) versus untreated control” value in data set [1] (20 µM added, 1 µM HSP90α-mNeonGreen, 2 µM p23-mScarlet-I) is on record as “significant reduction in FRET emission”. Further, in data set [1] (donor and acceptor both 1 µM, read-out: relative IC50, inhibition of HSP90α-mNeonGreen–p23-mScarlet-I binding), the half-maximal inhibitory concentration (IC50) stood at 1.4 ± 0.2 µM. For the same substance, in the data set on human HSP90α, the “effect on HSP90 ATPase activity upon binding” value is reported as “complete abrogation”. For the same substance, in the data set with human HSP90α–p23 binding, the “hit identification (EmFRET/FLDD decrease of more than 3 SDs from binding control mean)” value is reported as “identified as hits”. The Kd on human HSP90β was 1.5 µM.
